Patent publication US20100159032A1

Assays:
[1] = molecular target: Gln^3-Aβ(3-11)a, Gln^3-amyloid β-peptide(3-11)a (Artificial Sequence)
[2] = molecular target: Gln^3-Aβ(3-21)a, Gln^3-amyloid β-peptide(3-21)a (Artificial Sequence)
[3] = molecular target: Gln^3-Aβ(3-40), Gln^3-amyloid β-peptide(3-40) (Artificial Sequence)
[4] = molecular target: Glucagon(3-29) (Homo sapiens (Human)) (UniProt P01275)

recombinant human QC (glutaminyl cyclase) (from UniProt Q16769) (enzyme)
kcat/KM [1]: 267000 M⁻¹ s⁻¹
kcat/KM [2]: 383000 M⁻¹ s⁻¹
kcat/KM [3]: 449000 M⁻¹ s⁻¹
kcat/KM [4]: 526000 M⁻¹ s⁻¹
